Source: US20260176336A1 (MESTAG THERAPEUTICS, published 2026)

Experiments:
[1] = target: T1, human FAP (Acro, cat no FAP-H82Q6) (human, UniProt Q12884 26-760); assay: BLI (Octet), antibody captured by anti-Fc, FAP as analyte; * value outside instrument specifications
T1 construct: 'FAP is naturally a dimeric antigen'
Method: Binding to recombinant FAP proteins was investigated by Bio-Layer Interferometry (BLI) using the Octet instrument. Using standard amine coupling chemistry, an anti-Fc antibody was immobilised on the surface of ARG biosensors (Fortebio). The FAP/LTBR bispecific antibodies were loaded on the previously coated surface with anti-Fc capture antibody, followed by a 2-fold series dilution starting at 50 nM of either cyno FAP (Acro, cat no FAP-C82Q5) or human FAP (Acro, cat no FAP-H82Q6). Binding kinetics were studied in a 1× Kinetics buffer where the association was allowed for 200 seconds, followed by dissociation for 400 seconds. Sensor tips were regenerated using 10 mM Glycine pH 2.0. Data generated were referenced by subtracting a parallel buffer blank, the baseline was aligned with the y-axis, inter-step correlation by alignment against dissociation was performed, and the data were smoothed by a Savitzky-Golay filter in the data analysis software. The processed data were fitted using a 1:1 Langmuir binding model with R\hat{ }2 as a measurement of fitting accuracy. The Results are summarised in. Avidity was observed as FAP is naturally a dimeric antigen, and the limited detection by Octet with these molecules has been reached. Species cross-reactivity has been confirmed for all test samples.

[2] = target: T2, human LTBR endogenously expressed on cells (HepG2, A549, A375, HCC1187, RPMI-7951, primary human breast CAFs) (human, UniProt P36941 31-435); assay: cell-based or functional assay
T2 sequence (P36941 31-435): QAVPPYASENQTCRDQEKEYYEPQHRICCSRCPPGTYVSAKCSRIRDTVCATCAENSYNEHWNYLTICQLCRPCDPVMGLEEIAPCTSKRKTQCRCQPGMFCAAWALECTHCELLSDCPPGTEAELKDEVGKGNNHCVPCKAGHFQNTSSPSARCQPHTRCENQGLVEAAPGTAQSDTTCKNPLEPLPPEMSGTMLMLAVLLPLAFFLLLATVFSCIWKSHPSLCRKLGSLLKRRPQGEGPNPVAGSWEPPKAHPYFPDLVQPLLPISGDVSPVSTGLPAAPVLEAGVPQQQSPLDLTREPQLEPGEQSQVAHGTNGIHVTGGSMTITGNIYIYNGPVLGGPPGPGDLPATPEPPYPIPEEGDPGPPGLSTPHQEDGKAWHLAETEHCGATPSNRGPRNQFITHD

[3] = target: T2, human LTBR endogenously expressed on …; assay: cell-based or functional assay; remark: listed apart in the source
[4] = target: T2, human LTBR endogenously expressed on …; assay: cell-based or functional assay; remark: listed apart in the source
[5] = target: T3, Biotinylated hLTBR-His-Avitag (Acro, cat no LTR-H82E9-25 µg) (human, UniProt P36941 31-227, biotinylated (Avitag)); assay: BLI (Octet), biotinylated LTBR on SA sensor, antibody as analyte
T3 construct: bought protein loaded on SA Streptavidin biosensors
T3 sequence (P36941 31-227 limits assumed): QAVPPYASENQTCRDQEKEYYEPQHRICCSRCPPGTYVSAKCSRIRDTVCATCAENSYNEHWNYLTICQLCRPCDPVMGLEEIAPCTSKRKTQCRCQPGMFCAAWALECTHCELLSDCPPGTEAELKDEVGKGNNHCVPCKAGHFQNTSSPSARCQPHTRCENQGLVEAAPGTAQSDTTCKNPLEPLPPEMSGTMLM
Method: Briefly, Biotinylated hLTBR-His-Avitag (Acro, cat no LTR-H82E9-25 μg) was loaded on SA Streptavidin biosensors (Fortebio) in kinetics buffer (ForteBio) followed by a 2-fold dilution series starting at 50 nM of FAP/LTBR bispecific antibodies. Binding kinetics were studied in a 1× Kinetics buffer where the association was allowed for 100 seconds, followed by dissociation for 300 seconds. Data generated were referenced by subtracting a parallel buffer blank, the baseline was aligned with the y-axis, inter-step correlation by alignment against dissociation was performed, and the data were smoothed by a Savitzky-Golay filter in the data analysis software. The processed data were fitted using a 1:1 Langmuir binding model with R\hat{ }2 as a measurement of fitting accuracy. The KD and R\hat{ }2 values can be found in.

[6] = target: T2, human LTBR endogenously expressed on …; assay: flow cytometry, A549 cells
Method: (§1) In short, 1×10⁶ cells were resuspended in the FACS buffer (1% BSA, 0.1% Sodium Azide in PBS), and 50 μl was added to each well (5×10⁴ cells/well) of a 96-U bottom plate. The cells were washed once and resuspended in 50 μl/well of FACS buffer containing a 1:3, 11-point series dilutions of constructs 4.1-4.6 and clones 4.8-4.9 followed by 1 h incubation at 4° C. […] Next, cells were washed and resuspended in FACS buffer and read on Beckman Coulter CytoFLEX. The data were analysed using FloJo V10 and GraphPad Prism v9. Clone 4.7 was tested for binding to A375 (LTBR positive cell line) and the HEK293-FAP overexpressing cell line, as described in examples 2.4 and 3.5. The EC50 values can be found in.

[7] = target: T4, human FAP expressed on cells (transfected HEK293; FAP-CHO-K1 recombinant cell line, BPS cat no. 79947) (human, UniProt Q12884 1-760); assay: flow cytometry, FAP-CHO-K1 cells
T4 construct: also called HuFAP-HEK293; Hek-FAP
Method: as §1

[8] = target: cynomologus recombinant LTBR (Octet, Example 4.8) (cynomolgus (Macaca fascicularis), UniProt P36941 31-227 (human entry), limits assumed); assay: BLI (Octet), cyno LTBR immobilised on ARG sensor, antibody at 25 nM
cynomologus recombinant LTBR (Octet, Example 4.8), sequence (P36941 other isoform, or with tags, fused parts or gaps limits assumed): as the sequence (P36941 31-227 limits assumed) above, with A2V, A7G, Q24R, I45S, N163D, K181R, L184S, P186S counted along it
Method: A 2-fold series dilution starting at 50 nM of cynomologus recombinant LTBR was immobilised on the surface of ARG biosensors (Fortebio), followed by FAP/LTBR bispecific at 25 nM. Binding kinetics were studied in a 1× Kinetics buffer where the association was allowed for 180 seconds, followed by dissociation for 100 seconds. Sensor tips were regenerated using ethylene glycol. Data generated were referenced by subtracting a parallel buffer blank, the baseline was aligned with the y-axis, inter-step correlation by alignment against dissociation was performed, and the data were smoothed by a Savitzky-Golay filter in the data analysis software. The processed data were fitted using a 1:1 Langmuir binding model with R\hat{ }2 as a measurement of fitting accuracy. The KD values can be found in.

[9] = target: T2, human LTBR endogenously expressed on …; assay: cell-based or functional assay; remark: listed apart in the source
[10] = target: T2, human LTBR endogenously expressed on …; assay: cell-based or functional assay; remark: listed apart in the source

B1: Clone 4.2 (bispecific antibody, human IgG1, kappa, L234A L235A)
heavy 1: not shown
heavy 2: QLQLQESGPGLVKPSETLSLTCTVSGGSISSSTYYWGWIRQPPGKGLEWIGSIFYSGNTYYNPSLKSRVTISVDTSKNHFSLKLSSVTAADTAVYYCAREIIEPRPGYFDYWGQGTLVTVSSASTKGPSVFPLAPSSKSTSGGTAALGCLVKDYFPEPVTVSWNSGALTSGVHTFPAVLQSSGLYSLSSVVTVPSSSLGTQTYICNVNHKPSNTKVDKKVEPKSCDKTHTCPPCPAPEAAGGPSVFLFPPKPKDTLMISRTPEVTCVVVDVSHEDPEVKFNWYVDGVEVHNAKTKPREEQYNSTYRVVSVLTVLHQDWLNGKEYKCKVSNKALPAPIEKTISKAKGQPREPQVCTLPPSRDELTKNQVSLSCAVKGFYPSDIAVEWESNGQPENNYKTTPPVLDSDGSFFLVSKLTVDKSRWQQGNVFSCSVMHEALHNHYTQKSLSLSPG
light: not shown
notes: FAP:LTBR 1:1 heterodimer of LTBR VHH (clone 1.7) paired with FAP Fab (clone 3.5), human IgG1 LALA
Kd [1]: 0.325 nM | HepG2 Reporter assay, HepG2:FAP-CHO-K1 Co-culture EC50 [2]: 0.03 nM | CCL19 upregulation, HCC1187:CAF Co-culture EC50 [3]: 0.06 nM | ICAM1 upregulation in CAFs monoculture assay EC50 [4]: 0.019 nM | Kd [5]: 3.2 nM | EC50 [6]: 3.2 nM | EC50 [7]: 0.47 nM | Kd [8]: 6.75 nM | HCC-1187:RPMI7951 (cis-activation) co-culture assay CCL5 read-out EC50 [9]: 0.11 nM | HCC-1187:RPMI7951 (trans-activation) co-culture assay, CCL19 Read-out EC50 [9]: 0.16 nM | chemokine (CCL5) induction in RPMI-7951 EC50 [10]: 0.063 nM

B2: Clone 4.3 (bispecific antibody, human IgG1, kappa, L234A L235A)
heavy 1: not shown
heavy 2: QVQLVQSGAEVKKPGASVKVSCKASGYTFTGYYMHWVRQAPGQGLEWMGWIYPNTGGVNYAQNFQGRVTMTRDTSISTAYMELSRLRSDDTAVYYCARDDYNKNLDYWGQGTLVTVSSASTKGPSVFPLAPSSKSTSGGTAALGCLVKDYFPEPVTVSWNSGALTSGVHTFPAVLQSSGLYSLSSVVTVPSSSLGTQTYICNVNHKPSNTKVDKKVEPKSCDKTHTCPPCPAPEAAGGPSVFLFPPKPKDTLMISRTPEVTCVVVDVSHEDPEVKFNWYVDGVEVHNAKTKPREEQYNSTYRVVSVLTVLHQDWLNGKEYKCKVSNKALPAPIEKTISKAKGQPREPQVCTLPPSRDELTKNQVSLSCAVKGFYPSDIAVEWESNGQPENNYKTTPPVLDSDGSFFLVSKLTVDKSRWQQGNVFSCSVMHEALHNHYTQKSLSLSPG
light: not shown
notes: FAP:LTBR 1:1 heterodimer of LTBR VHH (clone 1.6) paired with FAP Fab (clone 3.6), human IgG1 LALA
Kd [1]: 0.192 nM | HepG2 Reporter assay, HepG2:FAP-CHO-K1 Co-culture EC50 [2]: 0.06 nM | CCL19 upregulation, HCC1187:CAF Co-culture EC50 [3]: 0.09 nM | ICAM1 upregulation in CAFs monoculture assay EC50 [4]: 0.04 nM | Kd [5]: 3.1 nM | EC50 [6]: 6.9 nM | EC50 [7]: 0.8 nM | Kd [8]: 5.78 nM | HCC-1187:RPMI7951 (cis-activation) co-culture assay CCL5 read-out EC50 [9]: 0.12 nM | HCC-1187:RPMI7951 (trans-activation) co-culture assay, CCL19 Read-out EC50 [9]: 0.11 nM | chemokine (CCL5) induction in RPMI-7951 EC50 [10]: 0.1 nM

B3: Clone 4.4 (bispecific antibody, human IgG1, kappa, L234A L235A)
heavy 1: not shown
heavy 2: QVQLVQSGAEVKKPGASVKVSCKASGYTFTGYYMHWVRQAPGQGLEWMGWIYPNTGGVNYAQNFQGRVTMTRDTSISTAYMELSRLRSDDTAVYYCARDDYNKNLDYWGQGTLVTVSSASTKGPSVFPLAPSSKSTSGGTAALGCLVKDYFPEPVTVSWNSGALTSGVHTFPAVLQSSGLYSLSSVVTVPSSSLGTQTYICNVNHKPSNTKVDKKVEPKSCDKTHTCPPCPAPEAAGGPSVFLFPPKPKDTLMISRTPEVTCVVVDVSHEDPEVKFNWYVDGVEVHNAKTKPREEQYNSTYRVVSVLTVLHQDWLNGKEYKCKVSNKALPAPIEKTISKAKGQPREPQVCTLPPSRDELTKNQVSLSCAVKGFYPSDIAVEWESNGQPENNYKTTPPVLDSDGSFFLVSKLTVDKSRWQQGNVFSCSVMHEALHNHYTQKSLSLSPG
light: not shown
notes: FAP:LTBR 2:1 heterodimer of FAP mAb (clone 3.6) with C terminal fused LTBR VHH (clone 1.6), human IgG1 LALA
Kd [1]: 0.231 nM | HepG2 Reporter assay, HepG2:FAP-CHO-K1 Co-culture EC50 [2]: 0.031 nM | CCL19 upregulation, HCC1187:CAF Co-culture EC50 [3]: 0.054 nM | ICAM1 upregulation in CAFs monoculture assay EC50 [4]: 0.0048 nM | Kd [5]: 4.6 nM | EC50 [6]: 45 nM | EC50 [7]: 0.2 nM | Kd [8]: 8.3 nM | HCC-1187:RPMI7951 (cis-activation) co-culture assay CCL5 read-out EC50 [9]: 0.012 nM | chemokine (CCL5) induction in RPMI-7951 EC50 [10]: 0.028 nM

B4: Clone 4.5 (bispecific antibody, human IgG1, kappa, L234A L235A)
heavy 1: not shown
heavy 2: QLQLQESGPGLVKPSETLSLTCTVSGGSISSSTYYWGWIRQPPGKGLEWIGSIFYSGNTYYNPSLKSRVTISVDTSKNHFSLKLSSVTAADTAVYYCAREIIEPRPGYFDYWGQGTLVTVSSASTKGPSVFPLAPSSKSTSGGTAALGCLVKDYFPEPVTVSWNSGALTSGVHTFPAVLQSSGLYSLSSVVTVPSSSLGTQTYICNVNHKPSNTKVDKKVEPKSCDKTHTCPPCPAPEAAGGPSVFLFPPKPKDTLMISRTPEVTCVVVDVSHEDPEVKFNWYVDGVEVHNAKTKPREEQYNSTYRVVSVLTVLHQDWLNGKEYKCKVSNKALPAPIEKTISKAKGQPREPQVCTLPPSRDELTKNQVSLSCAVKGFYPSDIAVEWESNGQPENNYKTTPPVLDSDGSFFLVSKLTVDKSRWQQGNVFSCSVMHEALHNHYTQKSLSLSPG
light: not shown
notes: FAP:LTBR 2:1 heterodimer of FAP mAb (clone 3.5) with C terminal fused LTBR VHH (clone 1.6), human IgG1 LALA
Kd [1]: 0.1 nM | HepG2 Reporter assay, HepG2:FAP-CHO-K1 Co-culture EC50 [2]: 0.04 nM | CCL19 upregulation, HCC1187:CAF Co-culture EC50 [3]: 0.023 nM | ICAM1 upregulation in CAFs monoculture assay EC50 [4]: 0.011 nM | Kd [5]: 6.5 nM | EC50 [6]: 29 nM | EC50 [7]: 0.11 nM | Kd [8]: 5.22 nM | HCC-1187:RPMI7951 (cis-activation) co-culture assay CCL5 read-out EC50 [9]: 0.012 nM | chemokine (CCL5) induction in RPMI-7951 EC50 [10]: 0.018 nM

B5: Clone 4.6 (bispecific antibody, human IgG1, kappa, L234A L235A)
heavy 1: not shown
heavy 2: QVQLVQSGAEVKKPGASVKVSCKASGYTFTGYYMHWVRQAPGQGLEWMGWIYPNTGGVNYAQNFQGRVTMTRDTSISTAYMELSRLRSDDTAVYYCARDDYNKNLDYWGQGTLVTVSSASTKGPSVFPLAPSSKSTSGGTAALGCLVKDYFPEPVTVSWNSGALTSGVHTFPAVLQSSGLYSLSSVVTVPSSSLGTQTYICNVNHKPSNTKVDKKVEPKSCDKTHTCPPCPAPEAAGGPSVFLFPPKPKDTLMISRTPEVTCVVVDVSHEDPEVKFNWYVDGVEVHNAKTKPREEQYNSTYRVVSVLTVLHQDWLNGKEYKCKVSNKALPAPIEKTISKAKGQPREPQVCTLPPSRDELTKNQVSLSCAVKGFYPSDIAVEWESNGQPENNYKTTPPVLDSDGSFFLVSKLTVDKSRWQQGNVFSCSVMHEALHNHYTQKSLSLSPG
light: not shown
notes: FAP:LTBR 2:1 heterodimer of FAP mAb (clone 3.6) with C terminal fused LTBR VHH (clone 1.7), human IgG1 LALA
Kd [1]: 0.0443 nM | HepG2 Reporter assay, HepG2:FAP-CHO-K1 Co-culture EC50 [2]: 0.053 nM | CCL19 upregulation, HCC1187:CAF Co-culture EC50 [3]: 0.013 nM | ICAM1 upregulation in CAFs monoculture assay EC50 [4]: 0.01 nM | Kd [5]: 4.3 nM | EC50 [7]: 0.33 nM | Kd [8]: 17.1 nM | HCC-1187:RPMI7951 (cis-activation) co-culture assay CCL5 read-out EC50 [9]: 0.013 nM | chemokine (CCL5) induction in RPMI-7951 EC50 [10]: 0.024 nM
